Changes are numbered by the printed parent chain.
Columns and labels:
[1] = test system: IL-7 induced STAT5 phosphorylation; experiment: Inhibition of IL-7 induced STAT5 phosphorylation in HPB-ALL T cell line, flow cytometry; type: cell-based, human; conditions: ScFv 10 μg/ml
Source text: (§1) Cells were harvested and stained with FITC conjugated anti-pSTAT6, PE conjugated anti-pSTAT3 or APC con jugated anti-pSTAT5 antibodies for flow cytometry analyses. In some embodiments, the purified ScFv could block the IL-4 induced STAT6 phosphorylation in cell culture (e.g., Ramos). In some embodiments, the purified ScFv could block the IL-7 induced STAT5 phosphorylation in cell culture (e.g., HPB-ALL). In some embodiments, the purified ScFv could block the IL-9 induced STAT3 phosphorylation in cell culture (e.g., Jurkat). In some embodiments, the purified ScFv could block the IL-15 induced STAT5 phosphorylation in cell culture (e.g., KHYG-1). In some embodiments, the purified ScFv could block the IL-21 induced STAT3 phosphorylation in cell culture (e.g., Ramos).
(§2) Flow cytometry was employed to measure the percentage of p-STAT expressing cells after cytokine induction and anti-γc ScFv treatment. KHYG-1 (Creative Bioarray, Shirley, NY 11967, USA) was starved in IL-2 free RPMI1640 (ATCC modification, ThermoFisher Scientific, Waltham, MA, USA) with 10% FBS (ThermoFisher Scientific) for 2 days. Ramos, HPB-ALL and Jurkat cell lines were used directly without starvation. Cells were replenished with fresh RPMI1640 medium and pretreated with anti-γc ScFv (10 μg/mL) for an hour. After treatment with TL-4 (10 ng/ml, Sino Biological), IL-7 (50 ng/ml, Sino Biological), IL-9 (50 ng/ml, Sino Biological), IL-15 (10 ng/ml, Sino Biological) or IL-21 (10 ng/ml, Sino Biological) for 15 min, cells were fixed in 4% paraformaldehyde (PFA, Sigma, St. Louis, Missouri, USA) for 10 min, permeabilized in 0.1% Triton X-100 (Sigma) for 10 min and then stained with FITC conjugated anti-pSTAT6, PE conjugated anti-pSTAT3 or APC con jugated anti-pSTAT5 (all diluted in 1:100, Biolegend, San Diego, California, USA) for 30 min at 37° C. Percentage of p-STAT expressing cells was measured by BD FACSLyric™ Clinical Flow Cytometry System (BD Biosciences, New Jersey, USA). Data were analyzed by Flowjo (version 10, BD).
(§3) Different cell lines were used for testing. KHYG-1 refers to the NK cell line harvested from the peripheral blood of a person with aggressive NK cell leukemia. This cell line could respond to IL-2 and IL-15 stimulation in-vitro [Yamasaki et al., Leuk Res., […]; 28 (10): 1023-31]. Ramos is a human Burkitts Lymphoma cell line (CRL-1596™) and could be used as a model for IL-4 and IL-21 studies [Hui et al., Front Immunol., 2022; 13: 919854]. Jurkat is a human T lymphoblast cell line (Clone E6-1, TIB-152™) and is widely used in the T cell studies of IL-9 function. HPB-ALL is a T cell leukemia model established from the peripheral blood of a child with ALL and thymoma at diagnosis in 1973 and could be used for IL-7 functional studies.

[2] = test system: IL-15 induced STAT5 phosphorylation; experiment: Inhibition of IL-15 induced STAT phosphorylation in KHYG-1 NK cell line, flow cytometry; type: cell-based, human; conditions: ScFv 10 μg/ml
Source text: as §1, §2, §3

[3] = test system: IL-21 induced STAT3 phosphorylation; experiment: Inhibition of IL-21 induced STAT phosphorylation in Ramos B cell line, flow cytometry; type: cell-based, human; conditions: ScFv 10 μg/ml
Source text: as §1, §2, §3

[4] = biological target: T1, human γc on cells (KHYG-1, Ramos, HPB-ALL, Jurkat, PBMC) (human) (UniProt P31785); experiment: cell-based or functional assay
T1 sequence (looked up): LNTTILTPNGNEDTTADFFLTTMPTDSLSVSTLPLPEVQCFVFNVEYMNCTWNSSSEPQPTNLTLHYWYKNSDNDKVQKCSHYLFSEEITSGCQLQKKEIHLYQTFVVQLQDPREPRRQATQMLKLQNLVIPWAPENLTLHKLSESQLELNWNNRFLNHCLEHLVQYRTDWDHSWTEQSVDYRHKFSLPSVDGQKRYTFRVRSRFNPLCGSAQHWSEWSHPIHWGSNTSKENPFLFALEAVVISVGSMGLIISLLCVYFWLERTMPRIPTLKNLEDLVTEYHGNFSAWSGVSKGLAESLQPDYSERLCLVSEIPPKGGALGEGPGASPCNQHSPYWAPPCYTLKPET

[5] = test system: IL-4 induced STAT6 phosphorylation; experiment: Inhibition of IL-4 induced STAT phosphorylation in Ramos B cell line, flow cytometry; type: cell-based, human; conditions: ScFv 10 μg/ml
Source text: as §1, §2, §3

[6] = test system: IL-9 induced STAT3 phosphorylation; experiment: Inhibition of IL-9 induced STAT3 phosphorylation in Jurkat T cell line, flow cytometry; type: cell-based, human; conditions: ScFv 10 μg/ml
Source text: as §1, §2, §3

B1: SM-05K: anti-γc antibody; CDR SEQ ID NO: 164, 166, 168, 172, 174, 176 (antibody, V domains shown)
VH: EVQLLESGPELVKPGASVKISCKTSGYSFTDYFMNWVKQSHGESLEWIGGIDPNTGGVTYNQKFKGKATLTVDKSASTAYMELRSLTSEDSAVYYCARRRRYYGYAMDYWGQGTSVTVSS
VL: DVLMTQTPLSLPVSLGDQASISCRSSQSIVHSNGNTYLEWYLQKPGQSPKLLIYKVSNRFSGVPDRFSGSGSGTDFTLKISRVEAEDLGVYFCSQSTHVPWTFGGGTKLEIK
modifications: left off: another chain or arm of the molecule; small tags and cut ends
p-STAT5 inhibition (%) [1]: 86.02%
p-STAT5 inhibition (%) [2]: 42.97%
p-STAT3 inhibition (%) [3]: 90.77%

B2: SM-05J anti-γc ScFv (scFv, part only; not given: linker and E-tag, not shown: small tags and cut ends)
scFv (part 1 of 2), part: EVQLQQSGPELVKPGASVKISCKTSGYTFTEYTMHWVKQSHGKSLEWIGGIDPYNGGITYNQRFKGKATLTVDKSSSTAYMELRSLTSEDSAVYYCARRRLYYGYALDYWGQGTSVTVSS
scFv (part 2 of 2), part: DVVMTQTPLSLPVSLGDQASISCRSSQSIVHSNGNTYLEWYLQKPGQSPKLLIYKVSNRFSGVPDRFSGSGSGTDFTLKISRVEAEDLGVYYCFQGSHVPFTFGSGTKLEIKR
p-STAT3 inhibition (%), IL-9 induced, Jurkat T cells, flow cytometry [4]: 100%
p-STAT3 inhibition (%), IL-21 induced, Ramos B cells, flow cytometry [4]: 75.8%
p-STAT5 inhibition (%), IL-7 induced, HPB-ALL T cells, flow cytometry [4]: 98.1%
p-STAT5 inhibition (%), IL-15 induced, KHYG-1 NK cells, flow cytometry [4]: 42.7%
p-STAT6 inhibition (%), IL-4 induced, Ramos B cells, flow cytometry [4]: 82.2%

B3: SM-05J: anti-γc antibody; CDR SEQ ID NO: 148, 150, 152, 156, 158, 160 (antibody, V domains shown)
VH: B2 scFv (part 1 of 2), part
VL: B1 VL with L3V, F92Y, S94F, S96G, T97S, W101F, G105S
modifications: left off: another chain or arm of the molecule; small tags and cut ends
p-STAT6 inhibition (%) [5]: 82.22%
p-STAT5 inhibition (%) [1]: 98.10%
p-STAT5 inhibition (%) [2]: 42.71%
p-STAT3 inhibition (%) [3]: 75.77%
p-STAT3 inhibition (%) [6]: 100%

B4: SM-05L: anti-γc antibody; CDR SEQ ID NO: 180, 182, 184, 188, 190, 192 (antibody, V domains shown)
VH: B2 scFv (part 1 of 2), part with Y54N, N55S, I58A, R63K, L83V, L107M
VL: B1 VL with D17G, S28N, W101F, T102A, G105S
modifications: left off: another chain or arm of the molecule; small tags and cut ends
p-STAT6 inhibition (%) [5]: 73.54%
p-STAT5 inhibition (%) [1]: 100%
p-STAT5 inhibition (%) [2]: 49.10%
p-STAT3 inhibition (%) [3]: 26.03%
p-STAT3 inhibition (%) [6]: 92.36%

B5: SM-05K anti-γc ScFv (scFv, part only; not given: linker and E-tag, not shown: small tags and cut ends)
scFv (part 1 of 2), part: B1 VH
scFv (part 2 of 2), part: B2 scFv (part 2 of 2), part with V3L, Y92F, F94S, G96S, S97T, F101W, S105G
p-STAT3 inhibition (%), IL-21 induced, Ramos B cells, flow cytometry [4]: 90.8%
p-STAT5 inhibition (%), IL-7 induced, HPB-ALL T cells, flow cytometry [4]: 86%
p-STAT5 inhibition (%), IL-15 induced, KHYG-1 NK cells, flow cytometry [4]: 43%

B6: SM-05B: anti-γc antibody; CDR SEQ ID NO: 20, 22, 24, 28, 30, 32 (antibody, V domains shown)
VH: B2 scFv (part 1 of 2), part with E1Q, S21F, K43E, Y54N, N55T, I58A, R63K, V72A, L101R
VL: B1 VL
modifications: left off: another chain or arm of the molecule; small tags and cut ends
p-STAT6 inhibition (%) [5]: 76.95%
p-STAT5 inhibition (%) [1]: 94.50%
p-STAT5 inhibition (%) [2]: 47.06%
p-STAT3 inhibition (%) [3]: 13.85%
p-STAT3 inhibition (%) [6]: 82.64%

B7: SM-05D: anti-γc antibody; CDR SEQ ID NO: 52, 54, 56, 60, 62, 64 (antibody, V domains shown)
VH: B2 scFv (part 1 of 2), part with E1Q, I58V, L83F, Y105N
VL: B1 VL with V2I, L3V, S32R, F92Y, S94F, S96G, T97S, W101F, G105S
modifications: left off: another chain or arm of the molecule; small tags and cut ends
p-STAT6 inhibition (%) [5]: 63.77%
p-STAT5 inhibition (%) [1]: 99.80%
p-STAT5 inhibition (%) [2]: 48.59%
p-STAT3 inhibition (%) [3]: 30.00%
p-STAT3 inhibition (%) [6]: 100%

B8: SM-05G anti-γc ScFv (scFv, part only; not given: linker and E-tag, not shown: small tags and cut ends)
scFv (part 1 of 2), part: B2 scFv (part 1 of 2), part with S21F, K43E, Y54N, N55T, I58V, R63K, V72A, K74S, S85N, L101R
scFv (part 2 of 2), part: B2 scFv (part 2 of 2), part with S14N, I29L, E39D, D75Y, K79N, I80F
p-STAT5 inhibition (%), IL-7 induced, HPB-ALL T cells, flow cytometry [4]: 0%

B9: SM-05C: anti-γc antibody; CDR SEQ ID NO: 36, 38, 40, 44, 46, 48 (antibody, V domains shown)
VH: B2 scFv (part 1 of 2), part with E1Q, S21F, K43E, Y54N, N55T, I58A, R63K, V72A, L101R, L107M
VL: B1 VL with L3V, I29L, E39H, V90I, F92Y, S94F, S96D, T97S, W101F, G105S
modifications: left off: another chain or arm of the molecule; small tags and cut ends
p-STAT6 inhibition (%) [5]: 45.99%
p-STAT5 inhibition (%) [1]: 100%
p-STAT5 inhibition (%) [2]: 46.04%
p-STAT3 inhibition (%) [3]: 29.10%
p-STAT3 inhibition (%) [6]: 97.92%
